The values that follow come from the supplement of paper PMC10567573.

The labels stand for the following.
B1: KIAA1161 (parent)
chain: FMPAMQFSIPPWRYDAEVVAIAQK
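Further: lentivirally expressed fusions sorted by FACS into six bins by GFP to DsRed ratio, PSI derived from sequencing read proportions per bin multiplied by bin number.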

Variants of B1 are the subject of this series. Nature of the series: protein stability index of a GFP-peptide fusion (GPS, HEK-293T) (PSI 1-6); higher = more stable. The conditions noted are these: c terminus: a fixed tail appended.
Turning to FMPAMQFSIPPWRYDAESVAIAQK [V18S], the protein stability index came out at 2.05.

In the case of FMPAMQFSIPPWRYDAEGVAIAQK [V18G], the protein stability index was found to be 2.6. Then FMPAMQFSIPPWRYDAELVAIAQK [V18L], with 2.23; and FMPAMQFSIPPWRYDAEAVAIAQK [V18A], with 2.17; and FMPAMQFSIPPWAYDAEVVAIAQK [R13A], with 2.04.

Take FMPAMQFSIPPWWYDAEVVAIAQK [R13W]: the protein stability index was determined as 1.58.

Turning to FMPAMQFSIPPWPYDAEVVAIAQK [R13P], the protein stability index was 2.17.

Take FMPAMQFSIPPWDYDAEVVAIAQK [R13D]: the protein stability index turned out to be 2.67. As to FMPAMQFSIPPWEYDAEVVAIAQK [R13E], the protein stability index is 2.48. In the case of FMPAMQFSIPPWNYDAEVVAIAQK [R13N] it was 2.51. As for FMPAMQFSIPPWFYDAEVVAIAQK [R13F], the protein stability index was determined as 1.1.

For the variant FMPAMQFSIPPWQYDAEVVAIAQK [R13Q], the protein stability index came to 2.53. Then FMPAMQFSIPPWVYDAEVVAIAQK [R13V], with 1.16.

In the case of FMPAMQFSIPPWKYDAEVVAIAQK [R13K], the protein stability index is 2.21. In the case of FMPAMQFSIPPWGYDAEVVAIAQK [R13G] it was 1.53. Then FMPAMQFSIPPWIYDAEVVAIAQK [R13I], with 1.81. In the case of FMPAMQFSIPPWTYDAEVVAIAQK [R13T] it was 2.02; in that of FMPAMQFSIPPWYYDAEVVAIAQK [R13Y], 1.69; in that of FMPAMQFSIPPWSYDAEVVAIAQK [R13S], 1.63.

On to FMPAMQFSIPPWRYDFEVVAIAQK [A16F], for which the protein stability index was 2.28. In the case of FMPAMQFSIPPWRYDGEVVAIAQK [A16G] it was 1.2. In the case of FMPAMQFSIPPWRYDQEVVAIAQK [A16Q] it was 1.62; in that of FMPAMQFSIPPWRYDMEVVAIAQK [A16M], 1.53.

Consider FMPAMQFSIPPWRYDTEVVAIAQK [A16T], for which the protein stability index worked out at 3.04. On to FMPAMQFSIPPWRYDNEVVAIAQK [A16N], for which the protein stability index stood at 2.02. As to FMPAMQFSIPPWRYDPEVVAIAQK [A16P], the protein stability index amounted to 2.08.

With FMPAMQFSIPPWRYDWEVVAIAQK [A16W], the protein stability index is 1.66. Then FMPAMQFSIPPWRYDKEVVAIAQK [A16K], with 1.59; and FMPAMQFSIPPWRYDDEVVAIAQK [A16D], with 2.25; and FMPAMQFSIPPWRYDSEVVAIAQK [A16S], with 1.72. In the case of FMPAMQFSIPPWRYDREVVAIAQK [A16R] it was 2.65.

On to FMPAMQFSIPPWRYDEEVVAIAQK [A16E], for which the protein stability index is 1.97. Then FMPAMQFSIPPWRYDIEVVAIAQK [A16I], with 3.3; and FMPAMQFSIPPWRYDVEVVAIAQK [A16V], with 2.52.

As for FMPAMQFSIPPWRYDHEVVAIAQK [A16H], the protein stability index worked out at 1.63. In the case of FMPAMQFSIPPWRYDYEVVAIAQK [A16Y] it was 2.19.

FMPAMQFSIPPWRYDAEVVGIAQK [A20G]: the protein stability index amounted to 1.98.

On to FMPAMQFSIPPWRYDAEVVKIAQK [A20K], for which the protein stability index amounted to 2.34. Then FMPAMQFSIPPWRYDAEVVDIAQK [A20D], with 3.07. In the case of FMPAMQFSIPPWRYDAEVVNIAQK [A20N] it was 3.44; in that of FMPAMQFSIPPWRYDAEVVMIAQK [A20M], 1.32.

For FMPAMQFSIPPWRYDAEVVHIAQK [A20H], the protein stability index was found to be 1.97. On to FMPAMQFSIPPWRYDAEVVCIAQK [A20C], for which the protein stability index was determined as 2.22. Then FMPAMQFSIPPWRYDAEVVEIAQK [A20E], with 2.42. For FMPAMQFSIPPWRYDAEVVFIAQK [A20F], the protein stability index was 2.54. Then FMPAMQFSIPPWRYDAEVVPIAQK [A20P], with 2.16.

Consider FMPAMQFSIPPLRYDAEVVAIAQK [W12L], for which the protein stability index stood at 2.23. In the case of FMPAMQFSIPPDRYDAEVVAIAQK [W12D] it was 2.55. For FMPAMQFSIPPFRYDAEVVAIAQK [W12F], the protein stability index came to 2.26. In the case of FMPAMQFSIPPNRYDAEVVAIAQK [W12N] it was 2.49. In the case of FMPAMQFSIPPIRYDAEVVAIAQK [W12I] it was 2.18.

As for FMPAMQFSIPPARYDAEVVAIAQK [W12A], the protein stability index is 2.31. Then FMPAMQFSIPPQRYDAEVVAIAQK [W12Q], with 2.3; and FMPAMQFSIPPGRYDAEVVAIAQK [W12G], with 2.76. Then FMPAMQFSIPPERYDAEVVAIAQK [W12E], with 2.08; and FMPAMQFSIPPCRYDAEVVAIAQK [W12C], with 1.73. In the case of FMPAMQFSIPPKRYDAEVVAIAQK [W12K] it was 2.17. As for FMPAMQFSIPPRRYDAEVVAIAQK [W12R], the protein stability index is 2.39.

Take FMPAMQFSIPPTRYDAEVVAIAQK [W12T]: the protein stability index was 2.44. Regarding FMPAMQFSIPPYRYDAEVVAIAQK [W12Y], the protein stability index is 1.99.

On to FMPAMQFSIPPMRYDAEVVAIAQK [W12M], for which the protein stability index is 2.7. Regarding FMPAMQFSIPPPRYDAEVVAIAQK [W12P], the protein stability index came out at 2.74. Then FMPAMQFSIPPHRYDAEVVAIAQK [W12H], with 2.53.

Consider FMPAMQFSIPPSRYDAEVVAIAQK [W12S], for which the protein stability index was found to be 2.48.

For the variant FMPAMQFSILPWRYDAEVVAIAQK [P10L], the protein stability index turned out to be 2.99.

As for FMPAMQFSIWPWRYDAEVVAIAQK [P10W], the protein stability index was 3.74.

With FMPAMQFSIQPWRYDAEVVAIAQK [P10Q], the protein stability index was determined as 1.64. For FMPAMQFSISPWRYDAEVVAIAQK [P10S], the protein stability index was determined as 2.42.

On to FMPAMQFSIDPWRYDAEVVAIAQK [P10D], for which the protein stability index came to 1.27. In the case of FMPAMQFSIGPWRYDAEVVAIAQK [P10G], the protein stability index is 1.33. In the case of FMPAMQFSIEPWRYDAEVVAIAQK [P10E] it was 2.5.

On to FMPAMQFSIAPWRYDAEVVAIAQK [P10A], for which the protein stability index was 1.33. For FMPAMQFSIRPWRYDAEVVAIAQK [P10R], the protein stability index amounted to 1.28. Then FMPAMQFSIMPWRYDAEVVAIAQK [P10M], with 1.

Consider FMPAMQFSITPWRYDAEVVAIAQK [P10T], for which the protein stability index was determined as 2. Regarding FMPAMQFSIHPWRYDAEVVAIAQK [P10H], the protein stability index was found to be 1.77.

With FMPAMQFSIIPWRYDAEVVAIAQK [P10I], the protein stability index turned out to be 2.86. In the case of FMPAMQFSIKPWRYDAEVVAIAQK [P10K] it was 2.57; in that of FMPAMQFSIYPWRYDAEVVAIAQK [P10Y], 2.34; in that of FMPAMQFSKPPWRYDAEVVAIAQK [I9K], 1.84.

In the case of FMPAMQFSNPPWRYDAEVVAIAQK [I9N], the protein stability index was determined as 2.28. Then FMPAMQFSPPPWRYDAEVVAIAQK [I9P], with 1.93. In the case of FMPAMQFSMPPWRYDAEVVAIAQK [I9M] it was 2.04. Then FMPAMQFSYPPWRYDAEVVAIAQK [I9Y], with 2.83.

Regarding FMPAMQFSEPPWRYDAEVVAIAQK [I9E], the protein stability index was 2.37. Then FMPAMQFSQPPWRYDAEVVAIAQK [I9Q], with 1.67; and FMPAMQFSTPPWRYDAEVVAIAQK [I9T], with 1.8; and FMPAMQFSWPPWRYDAEVVAIAQK [I9W], with 3.43. In the case of FMPAMQFSGPPWRYDAEVVAIAQK [I9G] it was 1.95; in that of FMPAMQFSHPPWRYDAEVVAIAQK [I9H], 2.35.

For the variant FMPAMQFSDPPWRYDAEVVAIAQK [I9D], the protein stability index amounted to 2.57.

Take FMPAMQFSRPPWRYDAEVVAIAQK [I9R]: the protein stability index was 1.6. Then FMPAMQFSSPPWRYDAEVVAIAQK [I9S], with 2.08.

For FMPAMQFSFPPWRYDAEVVAIAQK [I9F], the protein stability index worked out at 2.48.
